Data on 23 molecules can be found in US20220119472A1 (ORIONIS BIOSCIENCES, published 2022).

The target of experiment [1] is T1, recombinant His6-tagged extracellular domain of human Clec4C (C-type lectin domain family 4, member C) (human, UniProt Q8WTT0 44-213).
T1 construct: Same antigen for immunisation, panning and ELISA; also called His-Clec4C(EC); pMET7-SIgK-His-Clec4C(EC)
T1 sequence: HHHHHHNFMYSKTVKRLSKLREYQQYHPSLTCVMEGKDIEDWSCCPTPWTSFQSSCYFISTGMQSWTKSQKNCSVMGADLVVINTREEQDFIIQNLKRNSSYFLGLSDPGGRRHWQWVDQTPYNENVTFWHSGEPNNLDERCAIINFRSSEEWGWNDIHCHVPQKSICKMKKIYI
The experiment is described as follows: ELISA, antigen-coated vs uncoated blocked wells. The source says: (§1) In total, 190 colonies from rounds 1 and 2 were randomly selected and analyzed by ELISA for the presence of antigen-specific VHH in their periplasmic extracts (ELISA using crude periplasmic extracts from TG1 cultures including soluble VHH). The antigen used for ELISA screening was the same as the one used for immunization, using uncoated blocked wells as negative control.

In experiment [2] the target is T1, recombinant His6-tagged extracellular …. The experiment in a line: ELISA, TG1 periplasmic extract on coated antigen.
Excerpt: as §1

B1: 2CL16 (VHH)
VHH: QVQLQESGGGLVQPGGSLRLSCAASGDTFSNYAMGWFRQAPGKAREFVAAISRSAGSTYHVDSVKGRFTISRDNAMNTVYLQMNSLQPEDTAHYYCAARLTFNLIDYYTAETRYTYWGQGTQVTVSS
notes: pMECS VHH-HA-His6; TG1 periplasmic extract
As to B1, the ELISA ratio coated/uncoated in experiment [1] worked out at 14.1. In addition, in experiment [2], the ELISA coated is 2.03.

B2: 2CL66 (VHH)
VHH: QVQLQESGGGLVQAGGSLRLSCAASERTFTNYAMGWFRQGPGKDRAFVAAISRSGSSTSYADSVKGRFTISRDNAENILYLQMNSLKPEDTAVYYCAAAPLVLKTTPGAYNYWGQGTQVTVSS
notes: as for B1
B2: the ELISA ratio coated/uncoated in experiment [1] worked out at 18.6. Moreover, the ELISA coated in experiment [2] was found to be 2.04.

B3: 2CL15 (VHH)
VHH: QVQLQESGGGLVQPGGSVRLSCAASVFTLNNFIMSWVRQAPGKGLERVSDINMVGITDYSDPVKGRFTISRDNKQNTVYLQGNTLKPEDTAVYFCAAGRPIGLYYPSPRIRDYNDWGQGTQVTVSS
notes: as for B1
B3: the ELISA ratio coated/uncoated in experiment [1] was 12.8. Besides, the ELISA coated in experiment [2] was determined as 3.9.

B4: 1CL81 (VHH)
VHH: QVQLQESGGGLVQAGNSLKLSCAASGRNLAYYVMGWFRQAPGREREPVATLTRGGDDTYCADSVKGRFTISSDNAKNTVYLQMNNLKPEDTAIYTCAARLAVLSSNTYCSGLWDYWGQGTQVTVSS
notes: as for B1
As for B4, the ELISA ratio coated/uncoated in experiment [1] was found to be 4.72. For the same molecule, in experiment [2], the ELISA coated was 1.12.

B5: 1CL56 (VHH)
VHH: QVQLQESGGGLVQPGGSLTLSCGASGFDFSDYVMYWLRQAPGKGLQWVSSINASGVRTYYVDALKGRFTISRDNAKNTLYLQIDDLKPEDTGLYYCARVGQAPMYFGVDFWGNGTQVTVSS
notes: as for B1
Take B5: the ELISA ratio coated/uncoated in experiment [1] came to 4.82. The ELISA coated in experiment [2] worked out at 3.89.

B6: 2CL59 (VHH)
VHH: QVQLQESGGGLVQPGDSLTLSCADSGRTFSNYAMGWFHQAPGKEREFVAAISTSGGSTAYADSVKGRFTISRDNAKNTVYLQMNNLKPEDTAVYYCAARLSFSGSSYYQGPLQYPYWGQGTQVTVSS
notes: as for B1
On to B6, for which, in experiment [1], the ELISA ratio coated/uncoated came out at 3.98. For the same molecule, in experiment [2], the ELISA coated worked out at 3.76.

B7: 2CL29 (VHH)
VHH: QVQLQESGGGLVQPGDSLRLSCTASERTFTNYAMAWFRQAPGKERDVLATISRSGSSTFYAESVKGRFTISRDNTKNTVYLQMNSLEPEDTAVYYCAARPLVPSEDPDNYNYWGQGTQVTVSS
notes: as for B1
B7: in experiment [1], the ELISA ratio coated/uncoated amounted to 6.84. In addition, in experiment [2], the ELISA coated is 2.24.

B8: 2CL26 (VHH)
VHH: QVQLQESGGGWVQPGDSLRLSCAASGFTFSDYAVGWFRQAPGKEREFVARITRLGNGPYYSASVKGRFTISRDNARDMAYLKMDALTPEDTATYYCAAGRTLASTHDTKTSPQTYDYWGLGTQVTVSS
notes: as for B1
For the molecule B8, in experiment [1], the ELISA ratio coated/uncoated is 21.4. The ELISA coated in experiment [2] was found to be 4.

B9: 2CL55 (VHH)
VHH: QVQLQESGGGWVQPGDSLRLSCAASGSTFSDYAVGWFRQAPGKEREFVARITRLGNGPYYSASVKGRFTISRDNARDMAYLKMDALTPEDTATYYCAAGRTLASTHDTKTSPQTYDYWGQGTQVTVSS
notes: as for B1
For B9, the ELISA ratio coated/uncoated in experiment [1] is 15. For the same molecule, the ELISA coated in experiment [2] was found to be 1.7.

B10: 2CL81 (VHH)
VHH: QVQLQESGGGLVQAGDSLKLSCAASGRTFSTYAMGWFRQAPGKERDVVAAIATNGGTTYYVDSVKGRFTISRDNAQNRVYLQMNSLKPEDTAIYYCAARLSFGSGYYTNKLNYAYWGQGTQVTVSS
notes: as for B1
Take B10: the ELISA ratio coated/uncoated in experiment [1] stood at 8.32. In addition, the ELISA coated in experiment [2] came out at 3.69.

B11: 2CL30 (VHH)
VHH: QVQLQESGGGSVQAGGSLRLSCAASGRTFSDYAMGWFRQVPGLEREFVARISRSGDSTGYADSVKGRFTVSRDNAKNTVYLQMNSLKTEDTAVYYCAATTSWLPGHNANVYDYWGQGTQVTVSS
notes: as for B1
For the molecule B11, the ELISA ratio coated/uncoated in experiment [1] turned out to be 8.28. The ELISA coated in experiment [2] was found to be 3.79.

B12: 2CL71 (VHH)
VHH: QVQLQESGGGLVQAGGSLRLSCAASGLTFGRYAMGWFRQVPGLEREFIARISRSGDNTGYADSVKGRFTVSRDSAKSTVYLQMNSLKTEDTAVYYCAAGTSWVPGHNANAYDYWGQGTQVTVSS
notes: as for B1
As for B12, the ELISA ratio coated/uncoated in experiment [1] was 5.33. Moreover, the ELISA coated in experiment [2] was 4.

B13: 2CL34 (VHH)
VHH: QVQLQESGGGLVQAGGSLRLSCAASGRTFTNYAMGWFRQAPGKEREFVATISRSGSMPYYADSVKGRFTISRDNAKNMVYLQMNSLKPEDTAVYYCAANVLVTTTRLDQYDSWGQGTQVTVSS
notes: as for B1
Turning to B13, the ELISA ratio coated/uncoated in experiment [1] was found to be 3.83. Moreover, in experiment [2], the ELISA coated was found to be 2.8.

B14: 2CL65 (VHH)
VHH: QVQLQESGGGLVQPGGSLRLSCAASGRIFSINAMGWYRQAPGKQRELVAVISRSGISNYVDSVKGRFTISRDNAKNTVYLQMNSLNPEDTADYYCNADVLLTFNKREDSWGQGTQVTVSS
notes: as for B1
For B14, the ELISA ratio coated/uncoated in experiment [1] turned out to be 9.33. In experiment [2], the ELISA coated is 1.72.

B15: 2CL40 (VHH)
VHH: QVQLQESGGGLVQTGGSLRVSCAASGRSISNYNMGWFRQPPGKEREIVGSIRWDGDSTYYADSVKGRFTISRDNTKNTVYLQMNSLKSEDTADYYCAATVSSFDESKNPRWYPYWGQGTQVTVSS
notes: as for B1
B15: in experiment [1], the ELISA ratio coated/uncoated is 13.3. Further, the ELISA coated in experiment [2] stood at 3.11.

B16: 2CL7 (VHH)
VHH: QVQLQESGGGLVQAGDSLRLSCAPSGFTFDGYAIGWFRQAPGKEREKVACINKSDGLTYYEDSVKGRFTISSDTAKNTIHLQMNSLKPDDTAVYYCAAAWECDYAPADFGSWGQGTQVTVSS
notes: as for B1
For the molecule B16, the ELISA ratio coated/uncoated in experiment [1] turned out to be 6.57. In addition, the ELISA coated in experiment [2] turned out to be 0.664.

B17: 2CL18 (VHH)
VHH: QVQLQESGGGLVQAGGSLRLSCAPSGFTFDGYAIGWFRQAPGKEREKVACINKSDGLTYYEDSVKGRFTISSDTAKNTIHLQMNSLKPDDTAVYYCAAAWECDYAPADFGSWGQGTQVTVSS
notes: as for B1
As to B17, the ELISA ratio coated/uncoated in experiment [1] was determined as 4.74. The ELISA coated in experiment [2] stood at 0.491.

B18: 2CL46 (VHH)
VHH: QVQLQESGGGLVQAGGSLRLSCAVSGRTFSSYAMGWFRQARGKEREFVAAVEWSSGSTFYTDSVKGRFAISRDIAKNTVYLQMNSLKPEDTAVYYCAGDHTGKLVFSKTSDYWGQGTQVTVSS
notes: as for B1
As to B18, the ELISA ratio coated/uncoated in experiment [1] was 4.82. Moreover, in experiment [2], the ELISA coated was 3.3.

B19: 1CL88 (VHH)
VHH: QVQLQESGGGLVQAGGSLRLSCAASGRIFSNSAMGWFRQVLGKEREFVAAISENSSILYYTASVKGRFTISRDNDKNTVYLQMTSLKAEDTAVYYCAGYGSTTIRTTTRPTKWGQGTQVTVSS
notes: as for B1
Turning to B19, the ELISA ratio coated/uncoated in experiment [1] was 3.42. The ELISA coated in experiment [2] was found to be 4.

B20: 2CL91 (VHH)
VHH: QVQLQESGGGLVQAGDSLRLSCTASERTFSNYAMGWFRLAPGKERKFVAAISTSGGTTDYVDSVKGRFTISRDNAKNTVYLQMNSLKPEDTAVYYCAARLDFSSTDLYTTAPRYPYWGQGTQVTVSS
notes: as for B1
For the molecule B20, the ELISA ratio coated/uncoated in experiment [1] turned out to be 5.56. Moreover, the ELISA coated in experiment [2] came to 4.

B21: 2CL56 (VHH)
VHH: QVQLQESGGGSVQAGDSLTLSCIASGRTFSSLAMGWFRQAPGKEREFVAAINWSGDSTYYSDSMKGRLTMSRDNAKNTVFLQMNSLEPEDTAVYVCAADASGYGSAWPDRYDYWGQGTQVTVSS
notes: as for B1
With B21, the ELISA ratio coated/uncoated in experiment [1] amounted to 4.72. The ELISA coated in experiment [2] was determined as 0.999.

B22: 2CL57 (VHH)
VHH: QVQLQESGGGLVQAGGSLKLSCAASGRTFSSYAMGWFRQAPGKERDFVAVISWRNNTYYADSVKGRFTISRDNAKNTVHLQMNSLKSEDTAVYYCAAAGLGAVVAGMSDYDYWGQGTQVTVSS
notes: as for B1
In the case of B22, the ELISA ratio coated/uncoated in experiment [1] amounted to 4.38. The ELISA coated in experiment [2] was determined as 0.922.

B23: 1CL47 (VHH)
VHH: QVQLQESGGGLVQAGGSRRLSCAASGRTFINYAMGWFRQAPGKEREFVAAISTSGSNTYLADSLKARFTISRDNAKNTVYLQIRSLNPEDTAVYYCAARLSFDDSAYYTSTLRYAYWGQGTQVTVSS
notes: as for B1
In the case of B23, the ELISA ratio coated/uncoated in experiment [1] was 9.79. In addition, the ELISA coated in experiment [2] is 4.
